Reference: patent publication US8729028B2, “Noggin-derived peptide and use thereof” (Caregen Co., Ltd., priority 2009, dated 2014)
Blank lines part the entries; values can stand above or below the molecule they belong to. Where no end group is shown, it is not given here. The star is where a group is joined. Biotin = O=C1N[C@H]2[C@H](CS[C@H]2CCCCC(=O)*)N1

Legend:
HaCaT keratinocytes = test: SRB colorimetric assay of cellular growth, keratinocytes; format: cell-based; settings: peptide 100 ng/mL, 72 hours, SRB absorbance 590 nm and microscopy (FIGS. 2a, 3)
Experimental: (§1) To analyze the growth factor-like effect of the peptide synthesized in Synthesis Example, sulforhodamine B (SRB) calorimetric assay was carried out using HaCaT keratinocytes (Korean Cell Line Bank) and NIH3T3 fibroblasts (Korean Cell Line Bank) according to Rizzino et al.'s method (Rizzino et al. Cancer Res. 48: 4266 (1988)).
(§2) HaCaT keratinocytes and NIH3T3 fibroblasts were cultured respectively in a 250-mL tissue culture flask in Eagle's minimal essential media (EMEM; Gibco, U.S.A.) containing 10% fetal bovine serum (FBS; Sigma). The cultured cells were treated with 0.25% trypsin solution to detach the cells from the bottom of the culture flask and centrifuged to collect cell pellets. They were resuspended in FBS-free EMEM and added to each well of a 96-well tissue culture plate, with 4×10^3 cells per well. The cells were cultured under 7% CO2 for 24 hours at 37° C. 24 hours later, the medium was changed with fresh, FBS-containing medium and the cells were incubated for 72 hours under the same conditions as described above with blank sample as reference or with the sterilized synthetic peptide (100 ng/mL) dissolved in water and 10% DMSO. After removing the supernatant, the cells were washed once with phosphate buffered saline (PBS). […] In addition, absorbance was measured at 590 nm to analyze cell proliferation.

NIH3T3 fibroblasts = test: SRB colorimetric assay of cellular growth, fibroblasts; format: cell-based; settings: NIH3T3, peptide 100 ng/mL, 72 hours, SRB absorbance 590 nm and microscopy (FIGS. 2b, 3)
Experimental: as §1, §2

HaCaT cells = test: Laminin and hyaluronic acid production (ELISA kits); format: cell-based; settings: 72 hours after treatment
Experimental: HaCaT cells cultured for 48 hours were treated with the peptide synthesized in Synthesis Example. 72 hours later, the level of laminin and hyaluronic acid was measured as an indicator to show the improvement in skin wrinkles. The measurement was made using a laminin ELISA kit (Takara, Japan) and a hyaluronic acid ELISA kit (Takara, Japan).

BMP-4 = molecular target: T1, BMP-4 (Homo sapiens, UniProt P12644); test: Melanin production in α-MSH-induced, BMP-4-treated melanocytes (antagonistic activity against BMP-4); format: cell-based; settings: for melanin production: C57BL/6 mouse melanocytes, 200 μg/mL α-MSH, 1 μg/mL BMP-4, cultured 3 days, observed with naked eyes (FIG. 5)
T1 construct: purchased R&D Systems, Inc., USA
T1 sequence (P12644 293-408): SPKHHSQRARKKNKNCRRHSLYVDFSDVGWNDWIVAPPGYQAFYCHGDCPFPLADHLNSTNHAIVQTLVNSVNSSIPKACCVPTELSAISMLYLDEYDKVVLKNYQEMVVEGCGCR
Experimental: In order to investigate the antagonistic activity of the peptide synthesized in Synthesis Example against the growth factor BMP-4, C57BL/6 mouse melanocytes (Jung Ang Lab. Animal, Korea) were cultured and melanin production was induced with α-melanocyte stimulating hormone (α-MSH; Sigma). Then, after treating with BMP-4 (R&D Systems, Inc., USA) and then immediately with the synthesized peptide at different concentrations, it was checked whether the melanin production inhibited by BMP was activated again. The mouse melanocytes were cultured using DMEM (Sigma) containing 10% FBS (Sigma) at 37° C. under 5% CO2. After culturing the cells on a 24-well plate at 1×10^5 cells/well and confirming attachment of the cells, the cells were treated only with a solvent (control), with 200 μg/mL α-MSH (positive control) or with 1 μg/mL BMP-4. Then, the cells were treated with the peptide of SEQ ID NO: 1. After adding the test substance to each dish, the cells were cultured for 3 days. The test substance had been prepared by dissolving the ingredients in a solvent and diluting to the test concentration using a 5:3:2 mixture solvent of propylene glycol:ethanol:purified water. After removing the medium by centrifugation, the production of melanin could be observed with naked eyes.
For more accurate measurement, cells were washed with PBS and lysed with 1 N sodium hydroxide. Then, after measuring absorbance at 400 nm, inhibition of melanin production was calculated according to the Dooley's method (Dooley, T. P. et al., Skin Pharmacol. 7: 188-200 (1994)), and the result was shown in FIG. 6. The result shown in FIG. 6 coincides with that of FIG. 5.

rh-BMP4 protein [1] = molecular target: T2, rh-BMP4 protein (Homo sapiens, UniProt P12644); test: Biacore binding of peptide to immobilised BMP4; settings: CM5 sensor chip, 6000 RU rh-BMP4, peptide 4-1000 μg/mL (FIG. 7)
T2 construct: purchased R&D Systems, Inc., USA
T2 sequence (P12644 293-408): T1 sequence (P12644 293-408)
Experimental: (§3) In order to investigate whether the peptide synthesized according to the present disclosure binds to the BMP protein, the Biacore instrument allowing the detection of binding between drugs and receptors was used.
(§4) 6000 response units (RU) of rh-BMP4 protein (R&D Systems, Inc., USA) was fixed to a commercially available CM5 sensor chip (Biacore, Sweden) by amination. Then, HBS-EP buffer (Biacore, Sweden) was flown at a rate of 5 μL/min to activate the BMP4 protein on the CM5 sensor chip. After optimization for reaction, the synthesized peptide was flown at different concentrations (1000 μg/mL, 500 μg/mL, 250 μg/mL, 125 μg/mL, 62.5 μg/mL, 31.3 μg/mL, 15.6 μg/mL, 7.8 μg/mL, 4 μg/mL). The binding between BMP4 and the synthetic peptide could be identified from the increase in RU value.

rh-BMP4 protein [2] = molecular target: T2, rh-BMP4 protein; test: Streptavidin chromatography with SDS-PAGE and western blot (immunobinding to BMP4); format: binding; settings: streptavidin column, elution with NaCl, western blot with anti-BMP4 antibody (FIG. 8b)
Experimental: The N-terminus of the peptide prepared in Synthesis Example was modified with biotin (Sigma, USA). For streptavidin chromatography, the biotinylated peptide was loaded in a column packed with streptavidin-attached resin and equilibrated with 20 mM sodium phosphate buffer. Then, after flowing rh-BMP4 protein (R&D Systems, Inc., USA) through the column, 200 mM sodium phosphate buffer was flown to flush unbound protein and the protein bound to the biotinylated peptide was fractionated by eluting with 0.2 M NaCl. The eluate was analyzed by SDS-PAGE (see FIG. 8a) and it was confirmed whether the BMP4 protein binds with the biotinylated peptide by western blotting using anti-BMP4 antibody (Santa Cruz, USA) (see FIG. 8b).

[3] = Thermal stability at 37° C. in phosphate buffer, HPLC quantification; format: physicochemical; settings: 0.11 mg/mL phosphate buffer, days 0-70, compared with reference Noggin (FIG. 9)
Experimental: The peptide prepared in Synthesis Example and a reference growth factor (Noggin, FGF-10) purchased from NIBSC (UK) were prepared to 0.11 mg/mL phosphate buffer solutions. 1 mL of each prepared solution was put in a glass vial and kept at 37° C. The solution was sampled on days 0, 5, 10, 20, 30, 40 and 70. After centrifugation to remove any denatured peptide or protein, the supernatant was subjected to HPLC for quantification (FIG. 9).

C57BL/6 mouse = test: Hair growth on depilated back skin of mouse; format: in vivo; settings: C57BL/6 mouse back, 10 μL of 1 μg/μL on days 0, 2 and 4, observed for 10 days, against PBS (FIG. 10)
Experimental: In order to investigate the hair growth promoting effect of the peptide synthesized in Synthesis Example, hair of the back of a mouse (C57BL/6, Jung Ang Lab. Animal, Korea) was partially removed using hair removal cream. 10 μL of the peptide of SEQ ID NO: 1 (1 μg/μL) was administered or applied on the upper portion of the back of the mouse, and 10 μL of PBS was administered or applied on the lower portion of the back of the mouse, on days 0, 2 and 4.

[4] = molecular target: T3, rh-BMP4 protein (R&D Systems, Inc., USA) (human, UniProt P12644 293-408); test: SPR (Biacore), rh-BMP4 fixed on a CM5 chip, peptide flown at 4-1000 µg/mL
T3 construct: Bought protein; also called BMP protein
T3 sequence (looked up): T1 sequence (P12644 293-408)
Experimental: as §3, §4

Molecule: Glu-Leu-Ile-Glu-His (SEQ ID NO:2)-Linker-Arg-Pro-Ala-Asp (SEQ ID NO:3) peptide (linker=Gly-Gly-Gly) (ELIEHGGGRPAD; listed as Homo sapiens) [SEQ ID NO: 1, noggin-derived peptide]
growth of keratinocytes (HaCaT keratinocytes): promote the growth | growth of fibroblasts (NIH3T3 fibroblasts): promote the growth | production of hyaluronic acid (HaCaT cells; hyaluronic acid ELISA kit (FIG. 4b)): increases the production | production of laminin (HaCaT cells; laminin ELISA kit (FIG. 4a)): increases the production | melanin production (BMP-4): melanin production comparable to that of the α-MSH-treated group | BMP-4 activity (BMP-4; inferred from restored melanin production in BMP-4-treated mouse melanocytes (FIG. 5)): appropriately inhibits the BMP-4 activity | binding to BMP4 (increase in RU value) (rh-BMP4 protein [1]): very strong binding ability | binding of BMP4 protein to peptide (rh-BMP4 protein [2]): very strongly binds | thermal stability [3]: much superior thermal stability to the existing noggin peptide | hair growth (C57BL/6 mouse): effective in promoting hair growth

B1: Glu-Leu-Ile-Glu-His (SEQ ID NO:2)-Linker-Arg-Pro-Ala-Asp (SEQ ID NO:3) peptide (linker=Gly-Gly-Gly) (SEQ ID NO:1) (peptide)
peptide: ELIEHGGGRPAD
notes: Made by solid-phase synthesis; The synthesis text describes an acetylation step with acetic anhydride after the last Fmoc removal; However, the printed theoretical weight of 1250.35 matches the peptide without an acetyl group, so no N-terminal acetyl is entered; also called synthesized peptide
binding result [4]: binds

The next lines start with the values.

binding of BMP4 protein to peptide (rh-BMP4 protein [2]): bound
Molecule: biotinylated peptide: The N-terminus of the peptide prepared in Synthesis Example was modified with biotin (Biotin-ELIEHGGGRPAD)

melanin production (BMP-4): abrupt increase in melanin production
Molecule: α-melanocyte stimulating hormone [α-MSH, reference compound]
